Assay results: patent US6541002 (THOMAS JEFFERSON UNIVERSITY, dated 2003)

Target: T1, Vpr-Gal4DB chimeric protein (HIV-1, UniProt P04386 1-147; P12520 1-96)
T1 construct: also called Vpr-Gal4BD
Assay: yeast two-hybrid, growth on histidine-deficient medium

B1: wild type Gal4AD (other)
chain: ANFNQSGNIADSSLSFTFTNSSNGPNLITTQTNSQALSQPIASSNVHDNFMNNEITASKIDDGNNSKPLSPGWTDQTAYNAFGITTGMFNTTTMDDVYNYLFDDEDTPPNPKKE
Question: Does B1 bind?
Answer: no binding
